The supplement of paper PMC9732359
± gives the uncertainty stated by the source.

Experiment: protein stability index of a GFP-peptide fusion (yeast GPS) (PSI 1-4); higher = more stable; sorted into four equal gates, so the index is relative within each strain
How it was run: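 Tiled yeast protein peptides of 17 residues were each joined downstream of GFP, on plasmids that also express Cherry. The pooled library was maintained in yeast, and mid-log cultures in leucine-free medium were sorted into four equal gates on the GFP/Cherry ratio. Plasmids from every gate were amplified by PCR and sequenced on Illumina, with barcodes linking reads to strains. The protein stability index of a peptide is its gate-number-weighted read frequency summed over the gates.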

Sequence	protein stability index (doa10∆)	protein stability index (pdr5∆)	protein stability index (san1∆)	protein stability index (ubr1∆)
IYHGNHDVGELFWKVKE [PRE2]	1.9 ± 0.063	1.95 ± 0.066	2.02 ± 0.084	2.45 ± 0.049
PQRLQRKRHQRALKVRN [RPS6A]	2.96 ± 0.1	2.9 ± 0.069	2.64 ± 0.096	2.87 ± 0.046
LKNLLRSNFRVNLSQEA [SNU114]	2.05 ± 0.093	2.26 ± 0.089	2.58 ± 0.11	2.58 ± 0.11
KNPHDIIEGINAGEIEI [RPL12A]	2.66 ± 0.075	2.44 ± 0.075	2.22 ± 0.096	2.34 ± 0.06
YRNFMVNSYRLNPNEYF [SWI3]	1.69 ± 0.12	1.45 ± 0.058	2.3 ± 0.1	2.46 ± 0.075
AQSRNVEIEKRILKLGT [YGR119C/NUP57]	3.33 ± 0.082	3.15 ± 0.071	3.33 ± 0.077	3.34 ± 0.078
TRNITDYSINSRYEPKV [PRE7]	2.62 ± 0.053	2.7 ± 0.049	2.99 ± 0.046	2.88 ± 0.047
LTFILGQLLSVKFLVYQ [YML031W/NDC1]	1.53 ± 0.081	2.14 ± 0.12	1.51 ± 0.19	1.69 ± 0.097
SIRLKVPPTIAQFQYTL [RPL8A]	2.09 ± 0.047	2.36 ± 0.04	1.93 ± 0.064	2.19 ± 0.035
APNHSPEIDNLDDLVVL [RRP6]	3.16 ± 0.11	3.51 ± 0.11	3 ± 0.15	2.71 ± 0.088
LYVLPSFNIPRLTFKPW [YMR129W/POM152]	2.2 ± 0.12	1.7 ± 0.096	1.69 ± 0.18	1.54 ± 0.096
YTREFVEAIRRSNQYQR [NUT2]	2.26 ± 0.07	2.18 ± 0.05	2.88 ± 0.12	2.21 ± 0.082
LNLNNSELQPQNRSLQE [SNF2]	3.24 ± 0.046	3.31 ± 0.057	3.31 ± 0.08	3.27 ± 0.055
KFHSELQYLDKHIKNLE [RPN12]	3.14 ± 0.12	2.7 ± 0.17	2.84 ± 0.13	3.15 ± 0.072
NSQLVGKPHFSLLGGFD [PCI8]	2.42 ± 0.087	2.33 ± 0.09	2.34 ± 0.18	2.54 ± 0.053
INGINWRFHTPQKYVLH [SIN4]	2 ± 0.057	1.92 ± 0.052	1.83 ± 0.097	1.97 ± 0.042
HVKAGKGLIKVNGSPIT [RPS16A]	2.62 ± 0.065	2.78 ± 0.059	2.87 ± 0.061	3.1 ± 0.051
GQAIVVHPDYLYGAITE [FAS2]	2.09 ± 0.034	1.88 ± 0.047	1.9 ± 0.048	1.79 ± 0.04
TYKYPSLKGVDPKFRRN [RPL29]	3.03 ± 0.11	2.88 ± 0.25	2.97 ± 0.12	3.12 ± 0.09
YDRKKLPRKEVDDVLGG [RPC11]	3.2 ± 0.1	3.64 ± 0.14	3.29 ± 0.065	3.32 ± 0.099
DLNHVTEELQTQYATSQ [SMC2]	3.11 ± 0.19	3.17 ± 0.12	3.16 ± 0.1	3.44 ± 0.2
WSEISNELPDIEALYDD [RPN2]	3.49 ± 0.29	3.57 ± 0.25	3.29 ± 0.16	3.12 ± 0.11

Sequence	protein stability index (doa10∆)	protein stability index (pdr5∆)	protein stability index (san1∆)	protein stability index (ubr1∆)
NDNEGKHISASIDNDFS [YAR002W/NUP60]	3.05 ± 0.089	3.04 ± 0.071	3.19 ± 0.099	2.92 ± 0.067
SNNTAATADTTHLHEAL [NUT1]	2.37 ± 0.076	3.07 ± 0.084	3.15 ± 0.11	3.02 ± 0.042
MAFQKDAKSSAYSSRFQ [RPL5]	2.67 ± 0.11	2.89 ± 0.072	3.02 ± 0.061	2.92 ± 0.064
MPPKFDPNEVKYLYLRA [RPL12A]	2 ± 0.093	2.09 ± 0.17	2.98 ± 0.2	1.78 ± 0.079
NNNNSNNHNMRNNSNNK [SWI1]	3.054 ± 0.029	2.95 ± 0.031	2.762 ± 0.026	2.764 ± 0.021
VLTGGYLDQHKRTRLES [SMC3]	2.26 ± 0.17	2.04 ± 0.23	1.19 ± 0.16	2.62 ± 0.26
DWPTYVDQNPLTMHKII [SRB8]	2.45 ± 0.09	2.76 ± 0.08	2.69 ± 0.074	2.91 ± 0.07
AAASLPSKKLKTEDGFV [RPC82]	3.21 ± 0.1	3.09 ± 0.1	2.84 ± 0.091	3.04 ± 0.065
SSLFLDGLEKAAFNGVT [FAS2]	2.3 ± 0.06	2.12 ± 0.062	2.02 ± 0.092	2.88 ± 0.063
GLEVGPVVQVGIFIKIL [IRR1]	2.38 ± 0.068	2.25 ± 0.056	2.11 ± 0.15	2.47 ± 0.059
FNGAQLKAVTVEAGMIA [RPT5]	2.73 ± 0.28	2.62 ± 0.15	–	2.03 ± 0.19
RAFTKKVSSASAAASES [RPL16B]	2.42 ± 0.065	2.19 ± 0.052	2.16 ± 0.065	1.85 ± 0.054
CANKYMTTVSGRDAFHL [RPL10]	2.24 ± 0.24	2.64 ± 0.15	1.74 ± 0.2	1.92 ± 0.1
RSEKSTTNAQTKKLIQK [SRP54]	–	2.82 ± 0.13	2.77 ± 0.15	2.94 ± 0.098
KLIEKKSAYANTEKDYK [SMC2]	2.71 ± 0.057	2.59 ± 0.059	2.83 ± 0.053	2.88 ± 0.045
QVIKNEVCAKMPNIELY [SSN2]	2.83 ± 0.076	2.81 ± 0.058	2.7 ± 0.074	2.35 ± 0.06
SIDSTSRIELELKNIGL [ECM29]	2.59 ± 0.052	2.75 ± 0.045	2.74 ± 0.042	2.44 ± 0.028
SANVELFKRDCNQMENL [YCS4]	3.38 ± 0.1	3.35 ± 0.09	3.4 ± 0.062	3.35 ± 0.074
MFTYSQETQHGNITRGL [RPN2]	3.28 ± 0.08	3.12 ± 0.12	3.13 ± 0.06	3.21 ± 0.046
IWKESLIELSGGQRSLI [SMC2]	1.75 ± 0.14	2.12 ± 0.091	1.98 ± 0.16	1.56 ± 0.12
RPLPQWIRLRTNNTIRY [RPL39]	1.85 ± 0.056	1.81 ± 0.054	1.5 ± 0.067	1.62 ± 0.052
LKETVIPSLANNGNNST [POP6]	2.41 ± 0.058	3.01 ± 0.065	2.54 ± 0.068	2.56 ± 0.05
